Test results as given in US20250042970A1.
Where two headings read alike, the source gives them in different places.

Tests used:
[1] = biological target: FLAG-tagged cynomolgous APRIL (cynomolgus monkey); test: BIACORE SPR
[2] = biological target: FLAG-tagged human BAFF (human) (UniProt Q9Y275); test: BIACORE SPR
[3] = biological target: FLAG-tagged human BAFF (human) (UniProt Q9Y275); test: KinExA
[4] = biological target: soluble huBAFF (Example 12) (human) (UniProt Q9Y275)
[5] = biological target: FLAG-tagged cynomolgous APRIL (cynomolgus monkey); test: BIACORE SPR; remark: listed apart in the source
[6] = biological target: FLAG-tagged human BAFF (human) (UniProt Q9Y275); test: BIACORE SPR; remark: listed apart in the source
[7] = biological target: 6HIS-tagged murine BAFF (mouse) (UniProt Q9WU72); test: BIACORE SPR
[8] = biological target: FLAG-tagged murine megaAPRIL (mouse) (UniProt Q9D777); test: BIACORE SPR
[9] = biological target: FLAG-tagged human BAFF (human) (UniProt Q9Y275); test: BIACORE SPR; Table 3 experiment (BAv8-10 derivative series), control run
[10] = biological target: FLAG-tagged human BAFF (human) (UniProt Q9Y275); test: KinExA; remark: listed apart in the source
[11] = biological target: FLAG-tagged recombinant human APRIL (human) (UniProt O75888); test: KinExA
[12] = biological target: human APRIL (Examples 21-23) (human) (UniProt O75888); test: colorimetric ELISA, inhibition curve (450 nm against LogM of the fusion protein) for human APRIL; the partner on the plate not given
[13] = biological target: human BAFF (Examples 21-23) (human) (UniProt Q9Y275); test: assay not given (Example 21)
[14] = biological target: human APRIL (Examples 21-23) (human) (UniProt O75888); test: assay not given (Example 21)
[15] = biological target: murine APRIL (Examples 22-23) (mouse) (UniProt Q9D777); test: colorimetric ELISA, inhibition curve (450 nm against logM of the fusion protein) for mouse APRIL; the partner on the plate not given
[16] = biological target: murine BAFF (Examples 22-23) (mouse) (UniProt Q9WU72); test: SPR (Carterra LSA, HC30M chip)
[17] = biological target: human BAFF (Examples 21-23) (human) (UniProt Q9Y275); test: SPR (Carterra LSA, HC30M chip)
[18] = biological target: murine APRIL (Examples 22-23) (mouse) (UniProt Q9D777); test: SPR (Carterra LSA, HC30M chip)
[19] = biological target: human APRIL (Examples 21-23) (human) (UniProt O75888); test: SPR (Carterra LSA, HC30M chip)
[20] = biological target: T1, syndecan-1; test: colorimetric ELISA, binding curve (450 nm against LogM) on syndecan-1; curve rises to about 0.7 at LogM about -6.7, no plateau
T1 sequence (P18827 whole entry, species assumed, looked up): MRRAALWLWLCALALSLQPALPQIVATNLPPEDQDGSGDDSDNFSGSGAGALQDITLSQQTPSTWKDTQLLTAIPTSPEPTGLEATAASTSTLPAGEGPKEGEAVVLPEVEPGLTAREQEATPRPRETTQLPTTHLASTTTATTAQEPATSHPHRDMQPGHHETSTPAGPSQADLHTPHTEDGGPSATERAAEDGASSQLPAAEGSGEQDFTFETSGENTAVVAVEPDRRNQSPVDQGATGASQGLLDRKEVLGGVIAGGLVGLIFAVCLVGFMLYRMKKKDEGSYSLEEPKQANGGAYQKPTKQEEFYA

[21] = biological target: murine BAFF (Examples 22-23) (mouse) (UniProt Q9WU72); test: colorimetric ELISA, inhibition curve (450 nm against logM of the fusion protein) for mouse BAFF; the partner on the plate not given
[22] = biological target: human APRIL (Acros Biosystems) (human) (UniProt O75888); test: cell-based or functional assay
[23] = biological target: human BAFF (Acros Biosystems) (human) (UniProt Q9Y275); test: cell-based or functional assay
[24] = biological target: human BAFF-60mer (Adipogen) (human) (UniProt Q9Y275); test: cell-based or functional assay
[25] = biological target: human BAFF (Examples 21-23) (human) (UniProt Q9Y275); test: colorimetric ELISA, inhibition curve (450 nm against LogM of the fusion protein) for human BAFF; the partner on the plate not given
[26] = biological target: syndecan-2; test: colorimetric ELISA, binding curve (450 nm against LogM) on syndecan-2; curve rises to about 1.1 at LogM about -6.7, no plateau
[27] = biological target: T1, syndecan-1; test: colorimetric ELISA, binding curve (450 nm against LogM) on syndecan-1; curve rises to about 1.8 at LogM about -6.7, no plateau
[28] = biological target: syndecan-2; test: colorimetric ELISA, binding curve (450 nm against LogM) on syndecan-2; curve rises to about 2.4 at LogM about -6.7, no plateau
[29] = biological target: membrane-huBAFF (human) (UniProt Q9Y275)

Chain of murine BAFF (Examples 22-23) (mouse) (Q9WU72 127-309 limits assumed): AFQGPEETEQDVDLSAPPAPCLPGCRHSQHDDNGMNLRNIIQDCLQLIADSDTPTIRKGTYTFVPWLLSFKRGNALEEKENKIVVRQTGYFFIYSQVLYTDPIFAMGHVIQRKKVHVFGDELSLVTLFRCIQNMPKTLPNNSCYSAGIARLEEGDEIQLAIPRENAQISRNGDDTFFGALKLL
Chain of RC18 (Telitacicept) (Fc fusion) (chain): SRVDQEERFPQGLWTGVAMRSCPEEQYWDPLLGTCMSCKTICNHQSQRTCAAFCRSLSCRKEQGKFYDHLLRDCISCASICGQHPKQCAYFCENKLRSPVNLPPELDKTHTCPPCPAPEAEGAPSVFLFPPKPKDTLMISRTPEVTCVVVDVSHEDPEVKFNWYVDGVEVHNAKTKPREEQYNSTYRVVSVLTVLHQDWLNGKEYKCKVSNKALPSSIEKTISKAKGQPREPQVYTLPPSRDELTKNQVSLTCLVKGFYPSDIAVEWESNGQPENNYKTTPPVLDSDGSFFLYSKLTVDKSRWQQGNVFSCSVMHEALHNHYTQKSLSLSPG
Chain of human APRIL (Examples 21-23) (human) (O75888 105-250 limits assumed): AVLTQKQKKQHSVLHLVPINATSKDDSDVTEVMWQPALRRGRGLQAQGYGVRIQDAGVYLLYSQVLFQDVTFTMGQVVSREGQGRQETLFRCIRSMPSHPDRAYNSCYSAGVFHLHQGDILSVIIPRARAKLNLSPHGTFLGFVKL
Chain of FLAG-tagged recombinant human APRIL (human) (O75888 105-250 limits assumed): as above
Chain of human APRIL (Acros Biosystems) (human) (O75888 115-250 limits assumed): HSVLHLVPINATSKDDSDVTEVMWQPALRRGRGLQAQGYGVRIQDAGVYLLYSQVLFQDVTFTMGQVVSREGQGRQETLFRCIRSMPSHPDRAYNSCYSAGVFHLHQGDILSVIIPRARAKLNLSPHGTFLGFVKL
Chain of FLAG-tagged cynomolgous APRIL (cynomolgus monkey) (A0ACM8 entry or part of it limits assumed): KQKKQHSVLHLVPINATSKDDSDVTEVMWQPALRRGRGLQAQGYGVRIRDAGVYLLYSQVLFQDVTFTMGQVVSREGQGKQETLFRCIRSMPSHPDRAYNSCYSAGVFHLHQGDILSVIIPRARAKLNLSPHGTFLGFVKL
Chain of murine APRIL (Examples 22-23) (mouse) (Q9D777 96-241 limits assumed): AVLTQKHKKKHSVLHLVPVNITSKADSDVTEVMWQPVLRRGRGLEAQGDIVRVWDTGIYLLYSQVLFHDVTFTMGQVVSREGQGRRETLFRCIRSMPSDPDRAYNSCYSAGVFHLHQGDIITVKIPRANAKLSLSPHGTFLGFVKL
Chain of 6HIS-tagged murine BAFF (mouse) (Q9WU72 127-309 limits assumed): as the sequence (Q9WU72 127-309 limits assumed) above
Chain of syndecan-2 (P34741 whole entry): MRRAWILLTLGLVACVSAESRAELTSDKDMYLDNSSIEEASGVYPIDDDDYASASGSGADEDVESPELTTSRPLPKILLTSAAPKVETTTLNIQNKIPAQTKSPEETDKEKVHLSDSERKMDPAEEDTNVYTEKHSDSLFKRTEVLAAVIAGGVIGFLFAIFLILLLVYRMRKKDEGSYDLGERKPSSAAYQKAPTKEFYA

IC50 (read off the curve) (NFkappaB luciferase signal of HEK293-huBCMA reporter cells stimulated with soluble huBAFF) [4] | Kd [5] | fold improvement KD vs control [5] | Kd [6] | fold improvement KD vs control [6] | Kd [7] | Kd [8] | Kd [10] | Selectivity for huBAFF (KD APRIL/KD BAFF) [10] | fold improvement over control [10] | Kd [11] | Selectivity for huAPRIL (KD BAFF/KD APRIL) [11] | fold improvement over control [11] | IC50 [12] | IC50 [15] | Kd [16] | Kd [17] | Kd [19] | IC50 [21] | IC50 for proliferation of stimulated B cells, Donor 1, APRIL + anti-IgM [22] | Substance | other results
2 nM | 0.0151 nM | 1 fold | 0.121 nM | 1 fold | 0.0669 nM | 0.0216 nM | 0.226 nM | 0.0007 | 1 fold | 0.000159 nM | 1420 | 1 fold | – | – | – | – | – | – | – | [S40G]huBCMA ECD-Ig fusion protein (from UniProt Q02223 5-54) (Fc fusion) | Kd [1]: 0.057 nM; fold improvement over control [1]: 1 fold; fold improvement over control [2]: 1 fold; Kd [3]: 0.226 nM; Kd [9]: 0.173 nM
– | – | – | – | – | – | – | – | – | – | – | – | – | 3.6 nM | 212 nM | 0.532 nM | 0.919 nM | 0.067 nM | 31 nM | 3 nM | Atacicept (Fc fusion) | Kd [13]: 0.15 nM; Kd [14]: 0.13 nM; Kd [18]: 0.13 nM; EC50 [20]: 120 nM; IC50 for proliferation of stimulated B cells, Donor 2, APRIL + anti-IgM [22]: 0.01 pM; IC50 for proliferation of stimulated B cells, Donor 3, APRIL + anti-IgM [22]: 2.15 nM; IC50 for proliferation of stimulated B cells, Donor 1, BAFF + anti-IgM [23]: 0.64 nM; IC50 for proliferation of stimulated B cells, Donor 2, BAFF + anti-IgM [23]: 0.0985 nM; IC50 for proliferation of stimulated B cells, Donor 3, BAFF + anti-IgM [23]: 0.379 nM; IC50 for proliferation of stimulated B cells, Donor 1, BAFF-60mer + anti-IgM [24]: 2.06 nM; IC50 for proliferation of stimulated B cells, Donor 2, BAFF-60mer + anti-IgM [24]: 0.683 nM; IC50 for proliferation of stimulated B cells, Donor 3, BAFF-60mer + anti-IgM [24]: 1.13 nM; IC50 [25]: 6.8 nM; EC50 [26]: 5400 nM
– | – | – | – | – | – | – | – | – | – | – | – | – | 6.7 nM | 236 nM | 0.0023 nM | 0.616 nM | 0.082 nM | 39 nM | 2.51 nM | RC18 (Telitacicept) (Fc fusion) | EC50 [27]: 160 nM; EC50 [28]: 70 nM; IC50 for proliferation of stimulated B cells, Donor 2, APRIL + anti-IgM [22]: 573 pM; IC50 for proliferation of stimulated B cells, Donor 3, APRIL + anti-IgM [22]: 4.14 nM; IC50 for proliferation of stimulated B cells, Donor 1, BAFF + anti-IgM [23]: 1.98 nM; IC50 for proliferation of stimulated B cells, Donor 2, BAFF + anti-IgM [23]: 0.295 nM; IC50 for proliferation of stimulated B cells, Donor 3, BAFF + anti-IgM [23]: 1.05 nM; IC50 for proliferation of stimulated B cells, Donor 1, BAFF-60mer + anti-IgM [24]: 2.37 nM; IC50 for proliferation of stimulated B cells, Donor 2, BAFF-60mer + anti-IgM [24]: 0.818 nM; IC50 for proliferation of stimulated B cells, Donor 3, BAFF-60mer + anti-IgM [24]: 1.97 nM; IC50 [25]: 12.4 nM
5 nM | 1.21 nM | 0.01 fold | 0.0745 nM | 1.6 fold | 0.229 nM | 0.421 nM | 0.151 nM | 0.9 | 1.5 fold | 0.131 nM | 1.15 | 0.001 fold | – | – | – | – | – | – | – | Z-TACI-Ig fusion protein (from UniProt O14836 30-110) (Fc fusion) | IC50 (read off the curve) (NFkappaB luciferase signal of HEK293-huBCMA reporter cells stimulated with HEK-293 cells expressing membrane huBAFF) [29]: 5 nM
